Experimental data: the RNAGym collection of RNA variant scans (doi:10.1073/pnas.2313332121)

B1: TPR t1 (parent)
chain: GACCAAUCUGCCCUCAGAGCUCGAGAACAUCUUCGGAUGCAGAGGAGGCAGGCUUCGGUGGCGCGAUAGCGCCAACGUCCUCAACCUCCAAUGCAUCCCACCACAUGAUGAUGCCUGAAGAGCCUUGGUUUUUUG

Variants of: B1
Assay: polymerase ribozyme fitness, log enrichment relative to wild type (log ratio); higher = more active; in vitro selection for triplet polymerase activity
Summary of the method: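 Libraries of mutants in each subunit of a heterodimeric triplet polymerase ribozyme were generated by PCR and transcribed. In triplicate, each went through one in vitro selection round: annealing with biotinylated primer, partner subunit and triplets; frozen incubation at −7 °C; gel excision of extended constructs; streptavidin-bead capture; RT-PCR. Fitness, taken from Illumina sequencing of input and output libraries, is the logarithm of a genotype's enrichment over wild-type enrichment, averaged across replicates with inverse-variance weights. The logarithm is base 2, and genotypes needed ≥10 input reads and ≥1 read per output to be kept.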

| Variant | polymerase ribozyme fitness (log ratio) |
| --- | --- |
| A5G C70G G71U G120A U131A | -4.58 |
| A5G C11A G58U | -1.23 |
| A5U C12A A90G | -0.323 |
| C4U A74U U92G | -3.59 |
| C4A G61U A105U | -4.13 |
| C4G G42A | -3.06 |
| A5U C13U U21C C88U G120U | -0.379 |
| C4A G113U | -3.74 |
| A5G G47U C62A G71C | -1.95 |
| A5C A6U G69U A121G | 2.34 |
| C4U C12U G61A | -0.369 |
| C4A C13A U54G C56A G77A | -4.73 |
| A5C C13U A83G | -1.43 |
| C4G A37G C49G G113C | -4.25 |
| C4G A16G C97U C123U G127A | -4.37 |
| C4A C56A C70A C72U U125G | -4.17 |
| C4G U7C C56U G60U C101A | -6.75 |
| C4U U78C | -0.902 |
| A5U C13G A75C C76A | -1.8 |
| C4U U9G A24U G57C G58U A84G C85A C114G C123G | -7.47 |
| A5C U7C A74C A90U | -1.47 |
| C4U C13G C56G C72U C73A | -5.32 |
| C4G C49G G60C A119U U133A | -3.77 |
| C4U C53U C82A U129C | -2.91 |

| Variant | polymerase ribozyme fitness (log ratio) |
| --- | --- |
| A5C G10A C34A G63U C123U | -4.02 |
| C4G C20U G48C G63A C123G | -2.25 |
| A5C C73A C102A | -2.49 |
| A5C U112G U130C | -0.277 |
| A5G G45C G69A | -2.95 |
| A5C G39U C64A A68U U116C G127U | -5.8 |
| A5C G117C | -3.15 |
| C4G C8G C11A U14G G69C C124U | -2.77 |
| A5U C22A U112A | -2.64 |
| A5U A18C G57U C72U | -2.48 |
| A5G A29C | -1.82 |
| A5G C11U G48U G69A U131C | -3.72 |
| A5C G48A C82G | -1.18 |
| A5C G45A A83C U87G G120A U131A | -0.712 |
| A5G A6U A46G C123A | 0.996 |
| C3U U78C U87G | -0.313 |
| A5G C13U A46U C56A C72G U78A G110A | -3.02 |
| C4U G44U C53U C86G | -3.52 |
| C4A G120C | -0.842 |
| C4U G17U G48A U54G G61A G77U U130C | -3.69 |
| C4A A91U | -3.65 |
| C4A A46C C64U C114A C124A U131G | -3.27 |
| C4G C8G C40G C124U | 0.299 |
| C4A C85A | -2.93 |

| Variant | polymerase ribozyme fitness (log ratio) |
| --- | --- |
| A5C C62U | -0.355 |
| A5G U54G C88A | -0.448 |
| A5G G61C C104A | -2.73 |
| C4G C40G | -2.02 |
| C4G C40U | -1.78 |
| A5C G71U C82A C101G | -2.98 |
| C4G C12A | -1.87 |
| C4G C12G | -1.12 |
| C4G G44U U96A A100U | -3.73 |
| C4G C12G G61C C79A C82A C124U | -3.71 |
| A5U C62G | -1.69 |
| A5C G45U C62U | -1.97 |
| C4G U21A A24G A46U U125A | -4.02 |
| A5G A83C U126A | -1.99 |
| C4G C34A G69U C97U C114A G122U C123A | -3.31 |
| C4G C72A C86U U112C G122A G135C | -0.311 |
| A5C G44A A111U | -5.64 |
| A5G A26C A100U U106A C124A | -1.48 |
| A5C C49U C53A | -1.24 |
| C4G C8U C12A G42A G71A U106A U112G | -4.39 |
| A5C G63A G69U C101U | -1.54 |
| C4G A37U A90C | -2.66 |
| C4A C124U | -1.17 |
| A5G C8G G47A G69U C80G | -3.96 |

| Variant | polymerase ribozyme fitness (log ratio) |
| --- | --- |
| A5G C11G C28U U59G A118G G127U G135U | -2.91 |
| C4G C88A | -2.51 |
| A5G G48U G69A C89U C98U A121G | -3.81 |
| A5U C13U A37U G44C U78G C98U | -4.45 |
| A5C U38G U96C C104U | -2.11 |
| C4G U9G G61U G120C | 0.941 |
| C4U U109A | -5.02 |
| A5U C49G G51A A74U C82A | -4.76 |
| C4U C12G C15G G117C | 0.829 |
| A5C C115U G120A G122A U134G | -4.36 |
| C4A C70G | -3.6 |
| C4A C70U | -1.71 |
| A5C G45U C73G U81C G120A G122U | -3.02 |
| C4G C12A C15A C73U C94A C99U G110C | -7.24 |
| A5G U32G A50C C101U G113C C114U U131C | -5.64 |
| C4U A16G G60C C79A | -4.11 |
| C4U C12G G17C G48A U54C C104A C115G | -2.54 |
| A5G G47U | -1.19 |
| A5C C15G G61A C114U | -6.53 |
| C4U C11G G60A C72G C82U C97U A108G G120A | -3.71 |
| A5C G51A C86G | -4.05 |
| C4A G69A | -4.36 |
| C4A U130G | -1.85 |
| C4A C123A | -0.283 |

| Variant | polymerase ribozyme fitness (log ratio) |
| --- | --- |
| C4A U7G G69C A90C U112C C123U | -3.35 |
| C4U G51C | -2.89 |
| A5C C28U G57C | -3.47 |
| C4G A5U U55C G113A | -4.56 |
| C4A U112A | 0.26 |
| C4G C79U C104U | -1.62 |
| C4A A16G U54G C101A U112A A119G | -0.726 |
| C4U C8G G36U U38A G44U C124A | -5.08 |
| C4A U9G | -0.689 |
| A5C A18G | -4.19 |
| A5U C11G A16U G60U A103C | -5.34 |
| A5U C64U C80A C88U A95U | -4.14 |
| C4G C15A U54A A121C | -2.91 |
| A5G G36A C53G C73U C80A C82G | -1.5 |
| C4A A6C A46C C49A C70A C72G A84C A119U C123A U126G | -6.91 |
| C4U C49U | -0.875 |
| A5C C13U A84C U131A | -2.02 |
| A5U A29U G71A U78G C123A G128U | -4.18 |
| C4G C12U G60U C89G A111U | -5.57 |
| A5G A103C C104A | -3.08 |
| A5U A41G U55A C70G | -3.9 |
| A5G C15A G61A | -0.776 |
| A5G G60A | -0.271 |
| C4G U9C U112C G117A | -1.01 |

| Variant | polymerase ribozyme fitness (log ratio) |
| --- | --- |
| C4A C13U | -1.41 |
| C4A C8A C13U G63U A84C | -2.38 |
| C4G G61C G69U U112A | -1.95 |
| C4A C99U | -4.5 |
| C4U G60U | -0.43 |
| C4G C80U A83C C88U | -5.05 |
| A5C C12U G48A | -0.983 |
| A5C C79U C104A | -2.03 |
| A5U C56G A74U G110A U116G C124G G135U | -6.08 |
| C4G G63A U106G A118G C123G | -2.77 |
| A5C C72U C82G U87A C123G | -3.15 |
| A5C A6U U32C G69C | -1.62 |
| A5U A6C G63U | -1.11 |
| A5C G47U G48C G71A C102A | -6.35 |
| C4G U7C C34U U38G U54G G69U U109A A111G | -5.81 |
| A5G C13A G61A | -1.98 |
| A5C G60A C101U | -0.437 |
| C4A C11G G60A C114G | -5.08 |
| A5G U133A | -0.954 |
| A5G C85U G113U G122U | -3.92 |
| A5C A18C C123A U130A | -1.87 |
| A5C C98U U112A G128C | -4.48 |
| A5U C56U A91C U112G | -1.59 |
| C4A A29C G69U G110A G120A G127A | -4.61 |

| Variant | polymerase ribozyme fitness (log ratio) |
| --- | --- |
| C4U G47A G107U C124U | -3.15 |
| C4G G110U | -2.64 |
| C4U G135U | -1.43 |
| A5C G47A A66G | -3.08 |
| A5U C72G U81C | -1.14 |
| A5U A26G | -2.87 |
| A5C U9G | 0.0336 |
| A5U C11A C115G | -6.5 |
| A5G G52U U92C C114G | -5.18 |
| C4A G60A C102U A118U U132C | -4.76 |
| C4U U59A | -0.304 |
| C4A A18C C49U C85U C114G | -5.25 |
| C4A G61C A84U | -4.45 |
| C4U U59A C62A A100C U106A C124G | -0.734 |
| A5C U81A | -1.65 |
| C4U C49U G52A | -3.12 |
| C4A C15U G61A U87A | -2.75 |
| C4G A5U | -2.76 |
| C4G C8G A26G G120U | -0.664 |
| C4U C34A A90C C114G G135A | -5.15 |
| A5G U38G G48C G69U C79A | -2.33 |
| A5G G10U C72G C86U C97U C114A | -3.98 |
| C4A A18G C89A A100C G113A C124U | -4.48 |
